Values quoted from earlier work as cited in patent US20240277840A1, “SUPERCONCENTRATED FORMULATIONS OF BIOACTIVE AGENTS” (UPKARA, INC., priority 2021, published 2024).

Conditions: intraperitoneal (IP) administration, preclinical

For catumaxomab, the “local concentration of the antibody in the ascites fluid” value is listed as “high local concentrations” and the “systemic exposure, detectable in plasma” value is listed as < 5%.
